Holding throughout (assay): two-hybrid
The target of assay [1] is SePdx R96A fused to T25 (pKT25‐SePdx R96A) (Synechococcus elongatus PCC 7942).
The target in assay [2] is SePdx R189A fused to T25 (pKT25‐SePdx R189A) (Synechococcus elongatus PCC 7942).
Assay [3] has as its target SePdx Q214A fused to T25 (pKT25‐SePdx Q214A) (Synechococcus elongatus PCC 7942).
In assay [4] the target is SePdx Y31A fused to T25 (pKT25‐SePdx Y31A) (Synechococcus elongatus PCC 7942).
In assay [5] the target is SePdx D28A fused to T25 (pKT25‐SePdx D28A) (Synechococcus elongatus PCC 7942).
In assay [6] the target is SePdx T5A fused to T25 (pKT25‐SePdx T5A) (Synechococcus elongatus PCC 7942).
In assay [7] the target is SePdx Y144A fused to T25 (pKT25‐SePdx Y144A) (Synechococcus elongatus PCC 7942).
Assay [8] concerns the target SePdx G299A fused to T25 (pKT25‐SePdx G299A) (Synechococcus elongatus PCC 7942).

For the substance “CpcA1 fused to T18C (pUT18C) (from UniProt P13530 1-163) (natural protein)”, the decrease of β‐galactosidase activity against WT SePdx turned out to be 65.1% in assay [1]; 60.8% in assay [2]; 40.3% in assay [3]; 46.3% in assay [4]; 67.6% in assay [5].

Take “PSI core protein PsaE fused to T18C (pUT18C) (from UniProt Q31NL7 1-75) (natural protein)”: the increase of β‐galactosidase activity against WT SePdx in assay [6] was 3.19%. The values for the decrease of β‐galactosidase activity against WT SePdx in assay [7] and in assay [8] were 27.2% and 12.2%, respectively.

The record behind these values is paper PMC11929599.
